The results in this text go back to the supplement of paper PMC10567573.

B1: KRT33B (parent)
chain: PAVDLNQVLNETRNQYEALVETNR
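Note: lentivirally expressed fusions sorted by FACS into six bins by GFP to DsRed ratio, PSI derived from sequencing read proportions per bin multiplied by bin number.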

The variants in the series derive from B1. The series is described as follows: protein stability index of a GFP-peptide fusion (GPS, HEK-293T) (PSI 1-6); higher = more stable. The note with it: c terminus: a fixed tail appended.
Regarding PAVDLNQVLWETRNQYEALVETNR, the protein stability index came out at 2.37.

As to PAVDLNQVLPETRNQYEALVETNR, the protein stability index came to 4.84.

In the case of PAVDLNQVLIETRNQYEALVETNR, the protein stability index was 2.64.

PAVDLNQVLFETRNQYEALVETNR: the protein stability index was 2.44.

For PAVDLNQVLVETRNQYEALVETNR, the protein stability index was 3.22.

As to PAVDLNQVLAETRNQYEALVETNR, the protein stability index came out at 2.98.

Consider IAVDLNQVLNETRNQYEALVETNR, for which the protein stability index is 2.69.

WAVDLNQVLNETRNQYEALVETNR: the protein stability index is 3.26.

In the case of CAVDLNQVLNETRNQYEALVETNR, the protein stability index came out at 2.89.

As for QAVDLNQVLNETRNQYEALVETNR, the protein stability index turned out to be 3.26.

In the case of EAVDLNQVLNETRNQYEALVETNR, the protein stability index amounted to 2.98.

Take PAVDLNQVLNEERNQYEALVETNR: the protein stability index is 4.5.

Consider PAVDLNQVLNEPRNQYEALVETNR, for which the protein stability index came out at 4.52.

In the case of PAVDLNQVLNESRNQYEALVETNR, the protein stability index turned out to be 3.8.

Take PAVDLNQVLNETRVQYEALVETNR: the protein stability index was determined as 3.3.

As for PAVDLNQVLNETRKQYEALVETNR, the protein stability index is 2.63.

Regarding PAVDLNQVLNETRGQYEALVETNR, the protein stability index is 3.32.

Regarding PAVDLCQVLNETRNQYEALVETNR, the protein stability index amounted to 2.56.

PAVDLAQVLNETRNQYEALVETNR: the protein stability index amounted to 2.77.

With PAVDLNQVNNETRNQYEALVETNR, the protein stability index was 5.13.

As to PAVDLNQVCNETRNQYEALVETNR, the protein stability index is 4.91.

Take PAVDLNQVRNETRNQYEALVETNR: the protein stability index came to 4.36.

Take PAPDLNQVLNETRNQYEALVETNR: the protein stability index turned out to be 4.99.

Turning to PAHDLNQVLNETRNQYEALVETNR, the protein stability index was 4.33.

Take PAEDLNQVLNETRNQYEALVETNR: the protein stability index is 4.05.

As to PANDLNQVLNETRNQYEALVETNR, the protein stability index stood at 4.25.

Regarding PAWDLNQVLNETRNQYEALVETNR, the protein stability index worked out at 4.12.

As for PAKDLNQVLNETRNQYEALVETNR, the protein stability index worked out at 3.83.

Turning to PAIDLNQVLNETRNQYEALVETNR, the protein stability index was 3.77.

In the case of PAQDLNQVLNETRNQYEALVETNR, the protein stability index stood at 3.29.

In the case of PAYDLNQVLNETRNQYEALVETNR, the protein stability index amounted to 3.56.

Regarding PAVDLNQVLNETRNQYQALVETNR, the protein stability index was found to be 4.4.

Take PAVDLNQVLNETRNQYDALVETNR: the protein stability index came out at 4.23.

Turning to PAVDLNQVLNETRNQYEASVETNR, the protein stability index came out at 5.03.

With PAVDLNQVLNETRNQYEAGVETNR, the protein stability index was 4.91.

Take PAVDLNQVLNETRNQYEAHVETNR: the protein stability index turned out to be 4.57.

Turning to PAVDLNQVLNETRNQYEAVVETNR, the protein stability index was found to be 4.85.

Take PAVDLNQVLNETRNQYEAPVETNR: the protein stability index stood at 4.97.

As to PAVDLNQVLNETRNQYEAMVETNR, the protein stability index turned out to be 3.89.

Consider PAVDLNRVLNETRNQYEALVETNR, for which the protein stability index worked out at 3.95.

In the case of PAVDLNEVLNETRNQYEALVETNR, the protein stability index is 3.11.

As to PAVDLNMVLNETRNQYEALVETNR, the protein stability index amounted to 4.24.

PAVDLNKVLNETRNQYEALVETNR: the protein stability index amounted to 3.91.

With PAVDLNQVLNETRNQYEALVYTNR, the protein stability index was found to be 3.23.

For the variant PAVDLNQVLNETRNQYEALVTTNR, the protein stability index was 4.06.

On to PAVDLNQVLNETRNQYEALVWTNR, for which the protein stability index was 2.89.

Consider PAVDLNQVLNETRNQYEALVITNR, for which the protein stability index is 3.71.

In the case of PAVDLNQVLNETRNQYEALVDTNR, the protein stability index turned out to be 3.69.

With PAVDLNQVLNETRNQYEALVRTNR, the protein stability index came to 4.04.

As for PAVDLNQVLNETRNQYEALVLTNR, the protein stability index came out at 3.37.

For the variant PAVDLNQVLNETRNQYEALVFTNR, the protein stability index came out at 3.23.

On to PAVDLNQVLNETRNQYEALVETFR, for which the protein stability index was 2.58.

With PAVDLNQVLNETRNQYEALVETTR, the protein stability index was determined as 4.46.

In the case of PAVDLNQVLNETRNQYEALVETER, the protein stability index was determined as 4.51.

With PAVDLNQVLNETRNQYEALVETCR, the protein stability index turned out to be 4.03.

With PAVDLNQVLNETRNQYEALVETYR, the protein stability index is 3.71.

Take PAVDLNQVLNETRNQYEALVETGR: the protein stability index is 4.07.

With PAVDLNQVLNETRNQPEALVETNR, the protein stability index was found to be 5.06.

Regarding PAVDLNQVLNETRNQTEALVETNR, the protein stability index was 5.15.

Consider PAVDLNQVLNETRNQMEALVETNR, for which the protein stability index is 4.39.

PAVDLNQVLNETRNQQEALVETNR: the protein stability index was 5.29.

Regarding PAVDLNQVLNETRNQYEGLVETNR, the protein stability index worked out at 4.48.

Take PAVDLNQVLNETRNQYEELVETNR: the protein stability index is 3.58.

In the case of PAVDLNQVLNETRNQYESLVETNR, the protein stability index amounted to 3.71.

Take PAVDLNQVLNETRNQYEWLVETNR: the protein stability index stood at 3.72.

On to PAVDLNQRLNETRNQYEALVETNR, for which the protein stability index stood at 4.93.

With PAVDLNQFLNETRNQYEALVETNR, the protein stability index amounted to 3.78.

For the variant PAVDLNQYLNETRNQYEALVETNR, the protein stability index was 2.49.

On to PAVDLNQPLNETRNQYEALVETNR, for which the protein stability index is 5.14.

For the variant PAVDLNQQLNETRNQYEALVETNR, the protein stability index came out at 4.64.

With PAVDLNQHLNETRNQYEALVETNR, the protein stability index came to 4.05.

For PAVDLNQILNETRNQYEALVETNR, the protein stability index worked out at 2.98.

On to PAVDLNQALNETRNQYEALVETNR, for which the protein stability index was determined as 3.84.

As for PAVDLNQWLNETRNQYEALVETNR, the protein stability index turned out to be 3.42.

Take PAVDLNQVLNETRNQYEALCETNR: the protein stability index worked out at 4.06.

Turning to PAVDLNQVLNETRNQYEALSETNR, the protein stability index stood at 4.43.

For the variant PAVDLNQVLNETRNQYEALPETNR, the protein stability index worked out at 4.34.

In the case of PAVDLNQVLNETRNQYEALQETNR, the protein stability index was found to be 4.94.

In the case of PAVDLNQVLNETRNQYEALVETNQ, the protein stability index amounted to 4.16.

In the case of PAVDLNQVLNETRNQYEALVETNC, the protein stability index was 2.43.

For the variant PAVDLNQVLNETRNQYEALVETNP, the protein stability index came out at 4.94.

As for PAVDLNQVLNETRNQYEALVETNY, the protein stability index was found to be 2.83.

As to PAVDLNQVLNETRNQYEALVETND, the protein stability index came to 5.15.

As for PAVDLNQVLNATRNQYEALVETNR, the protein stability index came out at 3.63.

For the variant PAVDLNQVLNRTRNQYEALVETNR, the protein stability index stood at 4.02.

Turning to PAVDLNQVLNNTRNQYEALVETNR, the protein stability index is 3.94.

As to PAVDLNQVLNDTRNQYEALVETNR, the protein stability index is 3.77.

As for PAVDLNQVLNSTRNQYEALVETNR, the protein stability index was found to be 3.62.

PAVDLNQVLNFTRNQYEALVETNR: the protein stability index was 3.84.

Regarding PAVDLNQVLNHTRNQYEALVETNR, the protein stability index was 4.13.

As for PAVDWNQVLNETRNQYEALVETNR, the protein stability index turned out to be 2.52.

For PAVDGNQVLNETRNQYEALVETNR, the protein stability index came out at 5.15.

For PAVDINQVLNETRNQYEALVETNR, the protein stability index is 3.47.

As for PAVDYNQVLNETRNQYEALVETNR, the protein stability index turned out to be 3.44.
